Experimental findings from patent publication US20220010021A1 are described below.

Ends that are not written are not given here.

Common to all, as to test: cell-based or functional assay
The target in experiment [1] is human GLP-1 receptor (human) (UniProt P43220).
The target in experiment [2] is human glucagon receptor (human) (UniProt P47871).
Experiment [3] concerns the target human GIP receptor (human) (UniProt P48546).
Experiment [4] concerns the target human FGFR1c + KLB receptor complex on HEK293 iLite FGF21 reporter cells (human) (UniProt P11362).

human GLP-1 receptor (human), sequence (P43220 24-463): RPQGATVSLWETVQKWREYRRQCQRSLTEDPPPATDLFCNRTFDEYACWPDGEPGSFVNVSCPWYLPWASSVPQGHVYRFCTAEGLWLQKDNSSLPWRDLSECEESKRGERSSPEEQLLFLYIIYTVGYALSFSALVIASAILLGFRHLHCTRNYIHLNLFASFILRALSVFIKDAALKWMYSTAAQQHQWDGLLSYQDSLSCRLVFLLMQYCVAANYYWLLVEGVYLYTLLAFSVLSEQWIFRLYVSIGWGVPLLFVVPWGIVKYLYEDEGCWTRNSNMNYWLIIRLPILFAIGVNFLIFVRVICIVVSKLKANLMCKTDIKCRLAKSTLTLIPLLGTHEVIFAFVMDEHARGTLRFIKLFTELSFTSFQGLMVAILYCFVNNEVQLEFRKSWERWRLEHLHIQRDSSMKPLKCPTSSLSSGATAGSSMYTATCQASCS
human GIP receptor (human), sequence (P48546 22-466): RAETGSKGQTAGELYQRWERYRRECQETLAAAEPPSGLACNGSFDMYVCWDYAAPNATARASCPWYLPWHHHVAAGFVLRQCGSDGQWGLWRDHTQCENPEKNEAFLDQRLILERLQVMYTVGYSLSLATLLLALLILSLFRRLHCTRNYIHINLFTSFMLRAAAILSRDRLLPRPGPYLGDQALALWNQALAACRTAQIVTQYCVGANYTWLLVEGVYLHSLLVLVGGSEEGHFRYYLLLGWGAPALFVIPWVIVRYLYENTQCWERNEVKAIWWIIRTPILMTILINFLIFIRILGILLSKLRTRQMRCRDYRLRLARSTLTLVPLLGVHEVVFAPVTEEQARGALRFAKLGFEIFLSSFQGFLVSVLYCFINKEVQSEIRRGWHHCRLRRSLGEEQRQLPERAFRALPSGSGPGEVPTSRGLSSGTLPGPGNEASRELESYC
human glucagon receptor (human), sequence (P47871 26-477): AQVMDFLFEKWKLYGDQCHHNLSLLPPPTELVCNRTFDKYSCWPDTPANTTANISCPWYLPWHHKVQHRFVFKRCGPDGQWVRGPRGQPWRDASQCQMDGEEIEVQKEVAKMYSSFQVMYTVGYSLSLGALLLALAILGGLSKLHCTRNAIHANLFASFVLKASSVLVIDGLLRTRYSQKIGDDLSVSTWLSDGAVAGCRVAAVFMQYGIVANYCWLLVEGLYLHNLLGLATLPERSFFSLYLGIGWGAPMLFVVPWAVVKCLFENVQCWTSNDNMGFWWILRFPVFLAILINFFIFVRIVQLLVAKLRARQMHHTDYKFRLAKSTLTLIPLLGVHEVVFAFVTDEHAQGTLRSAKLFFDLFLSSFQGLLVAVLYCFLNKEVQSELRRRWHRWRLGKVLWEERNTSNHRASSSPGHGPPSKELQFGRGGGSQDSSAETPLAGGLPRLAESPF
human FGFR1c + KLB receptor complex on HEK293 iLite FGF21 reporter cells (human), sequence (P11362 22-822, chain 1 of 2): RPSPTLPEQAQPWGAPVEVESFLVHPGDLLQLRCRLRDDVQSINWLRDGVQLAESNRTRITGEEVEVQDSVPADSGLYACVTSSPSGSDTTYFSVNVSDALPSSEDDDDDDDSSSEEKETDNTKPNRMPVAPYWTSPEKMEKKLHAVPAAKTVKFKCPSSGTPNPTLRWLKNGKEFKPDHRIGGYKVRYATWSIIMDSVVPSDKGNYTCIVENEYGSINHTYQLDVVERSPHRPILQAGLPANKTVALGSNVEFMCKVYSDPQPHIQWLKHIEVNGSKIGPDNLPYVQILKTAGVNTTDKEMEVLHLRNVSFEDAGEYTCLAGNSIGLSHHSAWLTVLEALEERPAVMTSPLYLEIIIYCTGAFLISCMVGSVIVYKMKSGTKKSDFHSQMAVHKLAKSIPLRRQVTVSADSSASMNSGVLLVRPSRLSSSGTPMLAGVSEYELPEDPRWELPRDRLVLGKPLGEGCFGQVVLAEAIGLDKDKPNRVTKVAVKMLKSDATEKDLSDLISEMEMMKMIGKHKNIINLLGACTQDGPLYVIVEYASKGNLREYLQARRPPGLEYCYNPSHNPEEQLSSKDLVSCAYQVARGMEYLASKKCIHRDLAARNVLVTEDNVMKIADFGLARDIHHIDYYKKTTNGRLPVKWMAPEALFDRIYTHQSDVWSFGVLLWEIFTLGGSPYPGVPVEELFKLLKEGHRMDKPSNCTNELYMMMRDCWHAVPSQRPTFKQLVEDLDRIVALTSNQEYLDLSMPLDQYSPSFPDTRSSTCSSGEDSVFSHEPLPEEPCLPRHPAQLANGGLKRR
human FGFR1c + KLB receptor complex on HEK293 iLite FGF21 reporter cells (human), sequence (Q86Z14 whole entry, chain 2 of 2, further chain): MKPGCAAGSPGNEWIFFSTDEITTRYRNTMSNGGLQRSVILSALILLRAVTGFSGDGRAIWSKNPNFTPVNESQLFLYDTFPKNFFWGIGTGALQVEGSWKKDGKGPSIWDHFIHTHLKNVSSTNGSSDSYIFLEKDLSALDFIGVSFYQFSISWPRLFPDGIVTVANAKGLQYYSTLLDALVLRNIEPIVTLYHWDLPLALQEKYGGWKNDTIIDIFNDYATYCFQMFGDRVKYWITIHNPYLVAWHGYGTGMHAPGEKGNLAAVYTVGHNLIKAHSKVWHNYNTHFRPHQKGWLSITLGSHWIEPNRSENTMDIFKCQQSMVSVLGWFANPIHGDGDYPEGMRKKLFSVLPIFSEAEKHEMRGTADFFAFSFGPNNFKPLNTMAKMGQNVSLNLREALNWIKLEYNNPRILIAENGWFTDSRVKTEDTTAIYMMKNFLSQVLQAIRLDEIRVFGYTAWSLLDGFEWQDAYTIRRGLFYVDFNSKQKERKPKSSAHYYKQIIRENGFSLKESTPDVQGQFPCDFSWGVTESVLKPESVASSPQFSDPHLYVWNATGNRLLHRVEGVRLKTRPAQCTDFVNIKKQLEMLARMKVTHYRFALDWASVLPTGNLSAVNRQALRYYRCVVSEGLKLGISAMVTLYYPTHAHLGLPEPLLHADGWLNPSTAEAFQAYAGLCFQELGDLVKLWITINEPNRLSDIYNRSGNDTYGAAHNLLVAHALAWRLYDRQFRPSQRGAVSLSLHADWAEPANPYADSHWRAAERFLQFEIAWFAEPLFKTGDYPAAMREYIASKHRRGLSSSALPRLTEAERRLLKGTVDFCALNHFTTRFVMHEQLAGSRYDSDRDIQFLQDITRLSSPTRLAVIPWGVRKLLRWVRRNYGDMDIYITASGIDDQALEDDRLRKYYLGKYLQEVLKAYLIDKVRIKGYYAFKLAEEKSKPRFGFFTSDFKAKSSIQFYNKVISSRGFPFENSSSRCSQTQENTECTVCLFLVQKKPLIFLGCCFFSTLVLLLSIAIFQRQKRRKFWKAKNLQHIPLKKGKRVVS

As for GHGEGTFTSDLSIQLEEEAVRLFIEWLLATGPSSGAPPPS-NH2 [P020], the HTRF cAMP EC50 in experiment [1] worked out at 0.206 nM.
In the case of HGEGTFTSDLSKQLEEERVQLFIEWLKATGPSSGAPPPS-NH2 [P008], the HTRF cAMP EC50 in experiment [2] was above 10 nM; in experiment [1], 0.0232 nM; in experiment [3] it was above 10 nM.
In turn, HGEGTFTSDLSKQLEEEAVQLFIEWLLATGPSSGAPPPS-NH2 [P010] yielded an HTRF cAMP EC50 in experiment [1] of 0.0035 nM.
GHGEGTFTSDKSKQLEEEAVRLFIEWLKAGGPSSGAPPPS-NH2 [P021]: the figures for the HTRF cAMP EC50 in experiment [2], in experiment [1] and in experiment [3] were above 10 nM, 0.0276 nM and above 10 nM, respectively.
Turning to GHGEGTFTSDLSIQLEEEAVRLFIEWLLAGGPSSGAPPPS-NH2 [P019], the HTRF cAMP EC50 in experiment [1] turned out to be 0.0276 nM.
Turning to GHGEGTFTSDLSKQLEEEAVRLFIEWLKAGGPSSGAPPPS-NH2 [P017], the HTRF cAMP EC50 was above 10 nM in experiment [2], 0.0085 nM in experiment [1] and above 10 nM in experiment [3].
As for GHGEGTFTSDKSKQLEEEAVRLFIEWLKAGGPKKIRYS-NH2 [P014], the HTRF cAMP EC50 in experiment [2] was 5.4 nM; in experiment [1], 0.0105 nM; in experiment [3], above 10 nM.

B1: Ab0370 (antibody, IgG4, V domains shown)
VH: QVTLKESGPVLVKPTETLTLTCTVSGFSLNNARVGVSWIRQPPGKALEWLAWIFSNDEKSYSTSLKSRLTISKDTSKSQVVLTMTNMDPVDTATYYCARSVVTGGYYYEGMDVWGQGTTVTVSS
VL: SYVLTQPPSVSVAPGQTARITCGGNNIGSESVHWYQQKPGQAPVLVVDDSDRPSGIPERFSGSNSGNTATLTISRVEAGDEADYYCQVHDGNSDHVVFGGGTKLTVLG
As a reminder, the EC50 is the midpoint of the concentration-response curve. What is called Emax is the greatest response seen or fitted, relative to the assay's reference. Consider B1, for which, in experiment [4], the half-maximal effective concentration (EC50) is above 100 nM and the Emax amounted to 490%.
Turning to GHGEGTFTSDLSKQLEEEAVRLFIEWLKAGGPKKIRYS-NH2 [P013], the results for the HTRF cAMP EC50 in experiment [2], in experiment [1] and in experiment [3] were above 10 nM, 0.0099 nM and above 10 nM, respectively.
